# Assay results reported in patent publication US20210363262A1 (AIMED BIO, published 2021).
# Where a chain is given by its changes, count along the chain named.
# B1: 1F12 (parent antibody), full-length human IgG1 (antibody, V domains shown)
# VH: EVQLLESGGGLVQPGGSLRLSCAASGFTFSNYAMSWVRQAPGKGLEWVSGISYSGGSTYYADSVKGRFTISRDNSKNTLYLQMNSLRAEDTAVYYCAKASRSCQRPACSYANGMDVWGQGTLVTVSS
# VL: QSVLTQPPSASGTPGQRVTISCTGSSSNIGNNYVTWYQQLPGTAPKLLIYYNNHRPSGVPDRFSGSKSGTSASLAISGLQSEDEADYYCGSWDYSLSAYVFGGGTKLTVL
# B2: 1F12_L50E, full-length human IgG1 (antibody, V domains shown)
# VH: B1 VH
# VL: B1 VL with Y51E
# B3: 1F12_H60N, full-length human IgG1 (antibody, V domains shown)
# VH: B1 VH with A61N
# VL: B1 VL
# B4: 1F12_L26D, full-length human IgG1 (antibody, V domains shown)
# VH: B1 VH
# VL: B1 VL with S25D
# B5: 1F12_H100eH, full-length human IgG1 (antibody, V domains shown)
# VH: B1 VH with S109H
# VL: B1 VL
# B6: 1F12_L27bD, full-length human IgG1 (antibody, V domains shown)
# VH: B1 VH
# VL: B1 VL with N28D
# B7: 1F12_L95aR, full-length human IgG1 (antibody, V domains shown)
# VH: B1 VH
# VL: B1 VL with S97R
# B8: 1F12_H53D, full-length human IgG1 (antibody, V domains shown)
# VH: B1 VH with S54D
# VL: B1 VL
# B9: 1F12_H35H, full-length human IgG1 (antibody, V domains shown)
# VH: B1 VH with S35H
# VL: B1 VL
# B10: 1F12_H58D, full-length human IgG1 (antibody, V domains shown)
# VH: B1 VH with Y59D
# VL: B1 VL
# B11: 1F12_H57K, full-length human IgG1 (antibody, V domains shown)
# VH: B1 VH with T58K
# VL: B1 VL
# B12: 1F12_L51D, full-length human IgG1 (antibody, V domains shown)
# VH: B1 VH
# VL: B1 VL with N52D
# B13: 1F12_L96D, full-length human IgG1 (antibody, V domains shown)
# VH: B1 VH
# VL: B1 VL with Y99D
# B14: 1F12_H6L5, full-length human IgG1 (antibody, V domains shown)
# VH: B1 VH with S109H
# VL: B1 VL with S97R
# B15: 1F12_H2L3, full-length human IgG1 (antibody, V domains shown)
# VH: B1 VH with S54D
# VL: B1 VL with Y51E
# B16: 1F12_H2L6, full-length human IgG1 (antibody, V domains shown)
# VH: B1 VH with S54D
# VL: B1 VL with Y99D
# B17: 1F12_H3L5, full-length human IgG1 (antibody, V domains shown)
# VH: B1 VH with T58K
# VL: B1 VL with S97R
# Biological target: c-Met on cancer cell lines (Caki-1 renal cell carcinoma; MKN45 c-Met-amplified gastric cancer) (UniProt P08581)
# Assay: cell-based or functional assay
# Chain of c-Met on cancer cell lines (Caki-1 renal cell carcinoma; MKN45 c-Met-amplified gastric cancer) (UniProt P08581) (P08581 25-1390): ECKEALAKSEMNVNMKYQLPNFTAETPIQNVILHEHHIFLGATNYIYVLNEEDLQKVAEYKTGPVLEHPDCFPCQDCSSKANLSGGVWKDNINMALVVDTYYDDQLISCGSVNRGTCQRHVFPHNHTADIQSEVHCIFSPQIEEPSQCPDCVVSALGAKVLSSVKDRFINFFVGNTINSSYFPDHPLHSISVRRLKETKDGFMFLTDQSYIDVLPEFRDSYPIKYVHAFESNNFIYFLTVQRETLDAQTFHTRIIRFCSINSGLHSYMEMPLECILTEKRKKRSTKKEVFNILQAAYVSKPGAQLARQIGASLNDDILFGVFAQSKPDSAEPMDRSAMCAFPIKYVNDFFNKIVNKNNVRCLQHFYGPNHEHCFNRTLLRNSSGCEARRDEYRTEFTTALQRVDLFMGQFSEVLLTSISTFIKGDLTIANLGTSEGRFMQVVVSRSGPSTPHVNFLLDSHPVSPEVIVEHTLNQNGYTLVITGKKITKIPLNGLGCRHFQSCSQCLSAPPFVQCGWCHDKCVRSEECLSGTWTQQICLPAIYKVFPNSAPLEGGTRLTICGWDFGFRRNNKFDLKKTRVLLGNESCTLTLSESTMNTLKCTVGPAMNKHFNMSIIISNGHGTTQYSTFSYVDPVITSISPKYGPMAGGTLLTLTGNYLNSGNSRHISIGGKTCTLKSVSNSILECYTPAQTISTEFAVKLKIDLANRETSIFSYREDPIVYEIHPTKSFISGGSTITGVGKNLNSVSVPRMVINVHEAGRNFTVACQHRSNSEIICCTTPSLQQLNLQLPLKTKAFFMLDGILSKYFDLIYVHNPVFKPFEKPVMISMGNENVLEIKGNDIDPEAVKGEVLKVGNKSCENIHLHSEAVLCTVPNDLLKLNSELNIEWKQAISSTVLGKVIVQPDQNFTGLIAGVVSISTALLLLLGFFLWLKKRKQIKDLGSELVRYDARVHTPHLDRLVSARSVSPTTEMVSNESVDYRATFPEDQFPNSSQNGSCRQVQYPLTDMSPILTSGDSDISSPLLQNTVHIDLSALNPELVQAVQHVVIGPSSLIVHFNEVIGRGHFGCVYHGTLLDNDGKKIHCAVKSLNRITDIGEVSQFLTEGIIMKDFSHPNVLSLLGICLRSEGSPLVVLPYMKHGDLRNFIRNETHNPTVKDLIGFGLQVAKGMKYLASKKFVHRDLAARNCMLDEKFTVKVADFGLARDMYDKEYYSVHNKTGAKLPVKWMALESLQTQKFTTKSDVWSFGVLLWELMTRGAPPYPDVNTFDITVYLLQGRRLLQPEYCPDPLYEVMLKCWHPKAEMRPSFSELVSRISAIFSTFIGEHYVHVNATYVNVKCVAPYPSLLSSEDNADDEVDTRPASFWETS
row,"agonist activity: Akt phosphorylation in Caki-1 cells, Mean (%) (PBS = 0%, HGF/SF = 100%)",Molecule
1,100%,c-Met ligand HGF/SF (R&D systems) (from UniProt P14210 32-728)
2,30.5%,"Onartuzumab (OA-5D5; monovalent c-Met antibody, Genentech)"
3,86%,"5D5, c-Met agonist antibody"

# Biological target: c-Met on cancer cell lines (Caki-1 renal cell carcinoma; MKN45 c-Met-amplified gastric cancer) (UniProt P08581 25-1390)
# Assay: cell-based or functional assay
# Chain of c-Met on cancer cell lines (Caki-1 renal cell carcinoma; MKN45 c-Met-amplified gastric cancer) (UniProt P08581 25-1390) (P08581 25-1390): as above
row,"agonist activity: Akt phosphorylation in Caki-1 cells, Mean (%) (PBS = 0%, HGF/SF = 100%)",Molecule
1,18.2%,B1
2,37.2%,B2
3,27.7%,B3
4,38.1%,B4
5,27.5%,B5
6,30.3%,B6
7,29.5%,B7
8,24.5%,B8
9,17.3%,B9
10,21.5%,B10
11,26.8%,B11
12,42.5%,B12
13,21.2%,B13
14,18.2%,B14
15,24.5%,B15
16,26%,B16
17,18.9%,B17
